According to EP3653708A1, “ISOMALTULOSE PRODUCTION” (Evonik Operations GmbH, priority 2018, dated 2020):

Experiments:
[1] = molecular target: Serratia plymuthica sucrose isomerase SmuA variant SmuA(Q181P/D398G/F453Y) (Serratia plymuthica, UniProt D0VX20, D383G/F438Y/Q166P/V450E); test: Michaelis-Menten kinetics of the conversion of sucrose into isomaltulose (HPLC, initial velocities); format: biochemical; conditions: 25 mM calcium acetate pH 5.5, 20 °C, 74.7 nM enzyme, 50-400 mM sucrose
Description: (§1) The enzyme activity assay was carried out in 25 mM calcium acetate pH 5.5 in the presence of 1.16 M sucrose (Sigma-Aldrich, St. Louis, MO) for 16 h at 20 °C.
(§2) The reaction mixture was composed as follows:
(§3) The enzymatic product composition was determined on an Agilent 1200 HPLC instrument (Agilent Technologies, Santa Clara, United States of America) equipped with a Smart line refractive index detector 2300 (Knauer, Berlin, Germany). The sample solution was applied on an XBridge amide column (particle size: 5.0 µm, inner diameter: 4.6, length: 250 mm); (Waters, Milford, MA) at a flow rate of 2 mL/min using a running buffer of 57.8 % acetonitrile, 26.1 % acetone and 16.1 % H2O.
The Michaelis constant (KM), the turnover number (kcat) and the catalytic efficiency (kcat/KM) were determined for isomaltulose. […] To determine the initial velocities at these sucrose concentrations, the isomaltulose yield was analysed via HPLC and plotted against the respective sucrose concentration. […]
Figure 1 illustrates analysis of the enzyme kinetics and the product spectrum of mutant SmuA. […] The initial velocities for the production of isomaltulose were measured by HPLC at sucrose concentrations of 50 mM, 100 mM, 150 mM, 200 mM, 300 mM, and 400 mM. […]

[2] = tested on: OC[C@H]1O[C@@](CO)(O[C@H]2O[C@H](CO)[C@@H](O)[C@H](O)[C@H]2O)[C@@H](O)[C@@H]1O; test: as above; format: biochemical, Serratia plymuthica; conditions: 25 mM calcium acetate pH 5.5, 20 °C, 74.7 nM enzyme, 50-400 mM sucrose
Description: as §1, §2, §3
The Michaelis constant (KM), the turnover number (kcat) and the catalytic efficiency (kcat/KM) were determined for isomaltulose. To this end, the enzymatic reaction was carried out as described above at sucrose concentrations of 50 mM, 100 mM, 150 mM, 200 mM, 300 mM and 400 mM and stopped after 10 min, 20 min, 30 min and 40 min by heating the sample at 95 °C for 10 min. To determine the initial velocities at these sucrose concentrations, the isomaltulose yield was analysed via HPLC and plotted against the […]. The slope of the subsequent linear regression corresponded to the initial velocity.
Figure 1 illustrates analysis of the enzyme kinetics and the product spectrum of mutant SmuA. […] The initial velocities for the production of isomaltulose were measured by HPLC at sucrose concentrations of 50 mM, 100 mM, 150 mM, 200 mM, 300 mM, and 400 mM. The enzyme activity assay was carried out in 25 mM calcium acetate buffer pH 5.5 at 20 °C and 74.7 nM of the enzyme. […] Chromatographic conditions: XBridge amide column (particle size: 5.0 µm, inner diameter: 4.6, length: 250 mm); flow rate: 2 mL/min; injection volume: 20 µL; running buffer: 57.8 % acetonitrile, 26.1 % acetone, 16.1 % H2O. Detection via Smartline refractive index detector 2300. The enzyme activity assay was carried out in 25 mM calcium acetate buffer pH 5.5 in the presence of 1.16 M sucrose and 74.4 nM of the recombinant wild type enzyme for 16 h at 20 °C. Table 1: Composition of the isomerization products from sucrose by engineered SmuA variants.

[3] = other: SmuA(Y219L/T369F/D398G/F453Y)

`OC[C@H]1O[C@@](CO)(O[C@H]2O[C@H](CO)[C@@H](O)[C@H](O)[C@H]2O)[C@@H](O)[C@@H]1O` [sucrose] showed a kcat [1] of 122.88 s⁻¹.
With “Serratia plymuthica sucrose isomerase SmuA variant SmuA(Y219L) (Serratia plymuthica; V450E/Y204L)” the Km ([2]; other: SmuA(Y219L)) was 86.64 mM, the kcat ([2]; other: SmuA(Y219L)) was 665.77 s⁻¹ and the kcat/Km ([2]; other: SmuA(Y219L)) was 7680 M⁻¹ s⁻¹.
With “Serratia plymuthica sucrose isomerase SmuA variant SmuA(Y219L/D398G) (Serratia plymuthica; D383G/V450E/Y204L)” the Km ([2]; other: SmuA(Y219L/D398G)) was 60.16 mM, the kcat ([2]; other: SmuA(Y219L/D398G)) was 708.22 s⁻¹ and the kcat/Km ([2]; other: SmuA(Y219L/D398G)) was 11770 M⁻¹ s⁻¹.
For “Serratia plymuthica sucrose isomerase SmuA variant SmuA(Y219L/T369F/D398G/F453Y) (Serratia plymuthica; D383G/F438Y/T354F/V450E/Y204L)”, the Km [2, 3] was 58.16 mM, the kcat [2, 3] was 201.07 s⁻¹ and the kcat/Km [2, 3] was 3460 M⁻¹ s⁻¹.
In the case of “Serratia plymuthica sucrose isomerase SmuA, used as wildtype SmuA (UniProt D0VX20 with point mutation V465E, SEQ ID NO:3) (Serratia plymuthica; V450E)”, the Km ([2]; other: SmuA) is reported as 55.25 mM, the kcat ([2]; other: SmuA) is reported as 965.15 s⁻¹ and the kcat/Km ([2]; other: SmuA) is reported as 17470 M⁻¹ s⁻¹.
